Measured values as given in patent publication US20200199244A1 (published 2020).
Residue numbers refer to the chain shown, from its start.

T1: Macaca fascicularis CD40 (Macaca fascicularis (cynomolgus monkey), UniProt P25942 21-277 (human entry))
T1 chain: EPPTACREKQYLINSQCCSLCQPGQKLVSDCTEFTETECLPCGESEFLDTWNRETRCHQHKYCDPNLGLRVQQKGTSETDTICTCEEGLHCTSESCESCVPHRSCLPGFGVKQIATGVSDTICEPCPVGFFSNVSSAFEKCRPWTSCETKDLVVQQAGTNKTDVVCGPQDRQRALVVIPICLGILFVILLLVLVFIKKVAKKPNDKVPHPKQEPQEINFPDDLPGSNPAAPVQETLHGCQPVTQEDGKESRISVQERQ

B1: BMS3h-193-25 (other)
VL: DIQMTQSPSSLSASVGDRVTITCRASQTIERRLNWYQQKPGKAPRLLIYLATRLQSGVPSRFSGSGSGTDFTLTISSLQPEDFATYYCHQYESPPLTFGQGTKVEIKR
B2: BMS3h-193-29 (other)
VL: B1 VL with R45K
B3: BMS3h-198 (other)
VH: EVQLLESGGGLVQPGGSLRLSCAASGFTFAGYEMWWVRQAPGKGLERVSAISGSGGSTYYADSVKGRFTISRDDSKNTLYLQMNSLRAEDTAVYYCAKDPYSFDYWGQGTLVTVSS
B4: BMS3h-198-2 (other)
VH: B3 VH with L4P, V48I, K98R
B5: BMS3h-198-1 (other)
VH: B3 VH with F27S, F29I, K98R
B6: BMS3h-198-28 (other)
VH: B3 VH with V37F, Y105N
B7: BMS3h-198-5 (other)
VH: B3 VH with Y95H, D99E, F103Y
B8: BMS3h-198-24 (other)
VH: B3 VH with D99E, Y105S
B9: BMS3h-198-19 (other)
VH: B3 VH with M34L, K98R, W106R
B10: BMS3h-202 (other)
VH: EVQLLESGGGLVQPGGSLRLSCAASGFTFPTAEMVWVRQAPGKGLEWVSSISASGGSTYYADSVKGRFTISRDNSKNTLYLQMNSLRAEDTAVYYCAKEPVSYVATFDYWGQGTLVTVSS
B11: BMS3h-202-10 (other)
VH: B10 VH with V35L, S102Y
B12: BMS3h-202-5 (other)
VH: B10 VH with V35L
B13: BMS3h-202-1 (other)
VH: B10 VH with V35L, Q39K
B14: BMS3h-202-11 (other)
VH: B10 VH with V35L, Q39K, T91A
B15: BMS3h-217 (other)
VL: DIQMTQSPSSLSASVGDRVTITCRASHFIGTLLSWYQQKPGKAPKLLITYGSLLQSGVPSRFSGSGSGTDFTLTISSLQPEDFATYYCGQGVLWPATFGQGTKVEIKR
B16: BMS3h-217-30 (other)
VL: B15 VL with Q38L, L53W
B17: BMS3h-217-1 (other)
VL: B15 VL with D1N, S34T, Q38H
B18: BMS3h-217-7 (other)
VL: B15 VL with T31S, Q38H
B19: BMS3h-217-17 (other)
VL: B15 VL with M4I, T5I, A96P
B20: BMS3h-217-2305 (other)
VL: B15 VL with T31S, Q38V, Y50W, G51A, L53Y, K103T
B21: BMS3h-217-9 (other)
VL: B15 VL with Q38H, L53M
B22: BMS3h-217-31 (other)
VL: B15 VL with S67F, G91E
B23: BMS3h-274 (other)
VH: EVQLLESGGGLVQPGGSLRLSCAASGFTFDSYAMGWARQAPGKGLEWVSAIGAKGLSTYYADSVKGRFTISRDNSKNTLYLQMNSLRAEDTAVYYCAKAARGKFDYWGQGTLVTVSS
B24: BMS3h-217-4 (other)
VL: B15 VL with G30A, A96P
B25: BMS3h-217-5 (other)
VL: B15 VL with S10F, G30A, A96P
B26: BMS3h-43 (other)
VH: EVQLLESGGGLVQPGGSLRLSCTASGFTFNMYEMSWVRQAPGKGLEWVSGISRRGFTTYYADSVKGRFTISRDNSKNTLYLQMNSLRAEDTAVYYCAKEPITYAMRYARFDYWGQGTLVTVSS
notes: domain antibody (dAb): single human VH domain
B27: BMS3h-106 (other)
VH: EVQLLESGGGLVQPGGSLRLSCAASGFTFSTYHMQWVRQAPGKGLEWVSMIDADGLGTYYADSVKGRFTISRDNSKNTLYLQMNSLRAEDTAVYYCAKPGPQFGQFDYWGQGTLVTVSS
notes: as for B26
B28: BMS3h-197 (other)
VH: EVQLLESGGGLVQPGGSLRLSCAASGFTFGSAAMDWVRQAPGKGLEWVSSINDMGSNTYYADSVKGRFTISRDNSKNTLYLQMNSLRAEDTAVYYCAKQGGRFDYWGQGTLVTVSS
notes: as for B26
B29: BMS3h-38 (other)
VH: B3 VH with A30E, G31E, Y32E, W35I, R47W, D74N, D99E, Y101F, S102R
notes: as for B26
B30: BMS3h-37 (other)
VH: EVQLLESGGGLVQPGGSLRLSCAASGFTFEWYEMQWVRQAPGKGLEWVSAISGDGYRTYYADSVKGRFTISRDNSKNTLYLQMNSLRAEDTAVYYCAKELGYFDYWGQGTLVTVSS
notes: as for B26
B31: BMS3h-56 (other)
VH: EVQLLESGGGLVQPGGSLRLSCAASGFTFRDYEMWWVRQAPGKGLERVSAINPQGTRTYYADSVKGRFTISRDNSKNTLYLQMNSLRAEDTAVYYCAKLPFIFDYWGQGTLVTVSS
notes: as for B26
B32: BMS3h-198 (other)
VH: B3 VH
notes: as for B26
B33: BMS3h-41 (other)
VH: B30 VH with E30T, W31E, Q35I, A50S, D54N, Y56A, R57N, L100P, G101L, Y102R
notes: as for B26
B34: BMS3h-202 (other)
VH: B10 VH
notes: as for B26
B35: BMS3h-131 (other)
VL: DIQMTQSPSSLSASVGDRVTITCRANSSILWALAWYQQKPGKAPKLLIESSSGLQSGVPSRFSGSGSGTDFTLTISSLQPEDFATYYCVQNAGWPGTFGQGTKVEIKR
notes: domain antibody (dAb): single human V kappa domain
B36: BMS3h-107 (other)
VH: EVQLLESGGGLVQPGGSLRLSCAASGFTFSGYDMQWVRQAPGKGLEWVSTISASGVFTYYADSVKGRFTTSRDNSKNTLYLQMNSLRAEDTAVYYCAKYPNRFALNNFDYWGQGTLVTVSS
notes: as for B26

Target: human CD40 (human, UniProt P25942 21-277)
Assay: cell-based or functional assay

Row | hIZCD40L-driven Human B Cell Proliferation EC50 [nM] | CHO-hCD40L-driven DC Activation IL-12 EC50 [nM] | Binder
1 | 303 | – | B1
2 | 1380 | – | B2
3 | 554 | – | B3
4 | 207 | – | B4
5 | 64 | – | B5
6 | 20 | – | B6
7 | 9 | – | B7
8 | 34 | – | B8
9 | 19 | – | B9
10 | 6400 | – | B10
11 | 289 | – | B11
12 | 6500 | – | B12
13 | 192 | – | B13
14 | 201 | – | B14
15 | 3200 | – | B15
16 | 80 | > 7700 | B16
17 | 45 | – | B17
18 | 220 | – | B18
19 | 1950 | – | B19
20 | 11 | – | B20
21 | 380 | – | B21
22 | > 700 | – | B22

Target: T1, Macaca fascicularis CD40
Assay: cell-based or functional assay

Row | hIZCD40L-driven Cyno B Cell Proliferation EC50 [nM] | Binder
23 | 2200 | B1
24 | > 7000 | B3
25 | > 7000 | B10
26 | > 7000 | B13
27 | > 7000 | B23
28 | 27 | B24
29 | 35 | B17
30 | 15 | B25

Target: T2, biotinylated human CD40 (BMS) (human, UniProt P25942 21-193, limits assumed, biotinylated (sites not given))
T2 construct: Ligand immobilised on the streptavidin BIAcore chip
Assay: BIAcore SPR, immobilised biotinylated human CD40, 1:1 fit;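 note: dAbs passed as doubling dilutions over CD40 chip at 25 °C in HBS-EP running buffer, 300 s dissociation, traces double-referenced against blank flow cell and buffer injection, global Langmuir fit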

Row | Kd [nM] | koff [s⁻¹] | kon [M⁻¹ s⁻¹] | Binder
31 | 2100 | 0.0031 | 1400 | B26
32 | 350 | 0.046 | 130000 | B27
33 | 180 | 0.014 | 81000 | B28
34 | 300 | 0.0062 | 21000 | B29
35 | 190 | 0.0036 | 19000 | B30
36 | 180 | 0.004 | 23000 | B31
37 | 240 | 0.00038 | 1600 | B32
38 | 840 | 0.0083 | 9900 | B33
39 | 2000 | 0.0035 | 1700 | B34
40 | 930 | 0.022 | 24000 | B35
41 | 850 | 0.17 | 200000 | B36
